Source: patent publication US20240270821A1, “GIP/GLP1/GCG TRI-RECEPTOR AGONISTS AND USES THEREOF” (priority 2023, published 2024)

T1: human GIP receptor (human) (UniProt P48546)
T1 sequence (looked up): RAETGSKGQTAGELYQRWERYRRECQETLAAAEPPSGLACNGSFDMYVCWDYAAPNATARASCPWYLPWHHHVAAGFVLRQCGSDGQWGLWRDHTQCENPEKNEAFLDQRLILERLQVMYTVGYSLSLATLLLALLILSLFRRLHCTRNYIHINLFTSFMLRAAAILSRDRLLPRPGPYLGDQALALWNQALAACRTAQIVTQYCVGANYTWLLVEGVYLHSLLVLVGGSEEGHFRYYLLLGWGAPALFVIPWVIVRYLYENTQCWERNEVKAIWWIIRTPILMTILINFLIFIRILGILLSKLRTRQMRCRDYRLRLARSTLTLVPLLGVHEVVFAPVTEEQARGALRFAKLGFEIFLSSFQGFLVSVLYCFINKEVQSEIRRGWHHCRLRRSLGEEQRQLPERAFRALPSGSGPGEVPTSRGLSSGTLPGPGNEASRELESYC

B1: Example 662 (peptide)
chain: YXQGTXTSDXSILLDKKAQXAFIEYLEEGGPSSGAPPPSGTGE
modifications: synthetic construct; SITE 2: note = 2-Aminoisobutyric Acid; SITE 6: note = alpha-methyl-2-fluoro-L-phenylalanine; SITE 10: note = 3-(4-Pyridyl)-L-alanine; SITE 17: note = Lysine is chemically modified through conjugation of the epsilon-amino group of the Lysine side chain with (2-[2-(2-Amino-ethoxy))
B2: Example 651 (peptide)
chain: YXQGTXTSDXSIXLDKKAQXXFIEYLSEGGPSSGEPPPEGSEE
modifications: synthetic construct; SITE 2: note = 2-Aminoisobutyric Acid; SITE 6: note = alpha-methyl-2-fluoro-L-phenylalanine; SITE 10: note = 3-(4-Pyridyl)-L-alanine; SITE 13: note = alpha-methyl-leucine; SITE 17: note = Lysine is chemically modified through conjugation of the epsilon-amino group of the Lysine
B3: Example 638 (peptide)
chain: YXQGTXTSDXSIXLDKKAQXXFIEYLTEGGPSSGEPPPSGSEE
modifications: Aib, αMeF(2F), 4Pal, αMeL, Orn; γGlu2-C18 diacid Lys; amide; synthetic construct; SITE 2: note = 2-Aminoisobutyric Acid; SITE 6: note = alpha-methyl-2-fluoro-L-phenylalanine; SITE 10: note = 3-(4-Pyridyl)-L-alanine; SITE 13: note = alpha-methyl-leucine; SITE 17: note = Lysine is chemically modified through conjugation of the epsilon-amino group of the Lysine
B4: Example 652 (peptide)
chain: YXQGTXTSDXSIXLDKKAQXXFIEYLTEGGPSSGEPPPEGSEE
modifications: synthetic construct; SITE 2: note = 2-Aminoisobutyric Acid; SITE 6: note = alpha-methyl-2-fluoro-L-phenylalanine; SITE 10: note = 3-(4-Pyridyl)-L-alanine; SITE 13: note = alpha-methyl-leucine; SITE 17: note = Lysine is chemically modified through conjugation of the epsilon-amino group of the Lysine
B5: Example 639 (peptide)
chain: YXQGTXTSDXSIXLDKKAQXXFIEYLQEGGPSSGEPPPSGSEE
modifications: non-natural residues; K acylated (γGlu)2-C18 diacid; C-amide; synthetic construct; SITE 2: note = 2-Aminoisobutyric Acid; SITE 6: note = alpha-methyl-2-fluoro-L-phenylalanine; SITE 10: note = 3-(4-Pyridyl)-L-alanine; SITE 13: note = alpha-methyl-leucine; SITE 17: note = Lysine is chemically modified through conjugation of the epsilon-amino group of the Lysine
B6: Example 637 (peptide)
chain: YXQGTXTSDXSIXLDKKAQXXFIEYLSEGGPSSGEPPPSGSEE
modifications: Aib, αMeF(2F), 4Pal, Orn; acylated lysine; amide; synthetic construct; SITE 2: note = 2-Aminoisobutyric Acid; SITE 6: note = alpha-methyl-2-fluoro-L-phenylalanine; SITE 10: note = 3-(4-Pyridyl)-L-alanine; SITE 13: note = alpha-methyl-leucine; SITE 17: note = Lysine is chemically modified through conjugation of the epsilon-amino group of the Lysine
B7: Example 656 (peptide)
chain: YXQGTXTSDXXIXLDXKAQXXFIEXLQEGGPSSGEPPPEGTEE
modifications: acyl linker with epsilon-Lys; synthetic construct; SITE 2: note = 2-Aminoisobutyric Acid; SITE 6: note = alpha-methyl-2-fluoro-L-phenylalanine; SITE 10: note = 3-(4-Pyridyl)-L-alanine; SITE 11: note = alpha-methyl-L-serine; SITE 13: note = alpha-methyl-leucine; SITE 16: note = L-ornithine; SITE 17: note = Lysine is chemically mo
B8: Example 660 (peptide)
chain: YXQGTXTSDXSILLDKKAQXAFIEYLEEGGPSSGAPPPEGTGE
modifications: synthetic construct; SITE 2: note = 2-Aminoisobutyric Acid; SITE 6: note = alpha-methyl-2-fluoro-L-phenylalanine; SITE 10: note = 3-(4-Pyridyl)-L-alanine; SITE 17: note = Lysine is chemically modified through conjugation of the epsilon-amino group of the Lysine side chain with (gamma-Glu)2-CO-(CH2)1
B9: Example 665 (peptide)
chain: YXQGTXTSDXSILLDXKAQXAFIEXLEEGGPSSGAPPPSGTGE
modifications: synthetic construct; SITE 2: note = 2-Aminoisobutyric Acid; SITE 6: note = alpha-methyl-2-fluoro-L-phenylalanine; SITE 10: note = 3-(4-Pyridyl)-L-alanine; SITE 16: note = L-ornithine; SITE 17: note = Lysine is chemically modified through conjugation of the epsilon-amino group of the Lysine side chai
B10: Example 667 (peptide)
chain: YXQGTXTSDXSILLDKKAQXAFIEXLEEGGPSSGAPPPSGEGE
modifications: synthetic construct; SITE 2: note = 2-Aminoisobutyric Acid; SITE 6: note = alpha-methyl-2-fluoro-L-phenylalanine; SITE 10: note = 3-(4-Pyridyl)-L-alanine; SITE 17: note = Lysine is chemically modified through conjugation of the epsilon-amino group of the Lysine side chain with (gamma-Glu)2-CO-(CH2)1
B11: Example 664 (peptide)
chain: YXQGTXTSDXSILLDKKAQXAFIEXLEEGGPSSGAPPPSGTGE
modifications: synthetic construct; SITE 2: note = 2-Aminoisobutyric Acid; SITE 6: note = alpha-methyl-2-fluoro-L-phenylalanine; SITE 10: note = 3-(4-Pyridyl)-L-alanine; SITE 17: note = Lysine is chemically modified through conjugation of the epsilon-amino group of the Lysine side chain with (gamma-Glu)2-CO-(CH2)1
B12: Example 668 (peptide)
chain: YXQGTXTSDXSILLDKKAQXAFIEXLEEGGPSSGAPPPSGGGE
modifications: synthetic construct; SITE 2: note = 2-Aminoisobutyric Acid; SITE 6: note = alpha-methyl-2-fluoro-L-phenylalanine; SITE 10: note = 3-(4-Pyridyl)-L-alanine; SITE 17: note = Lysine is chemically modified through conjugation of the epsilon-amino group of the Lysine side chain with (gamma-Glu)2-CO-(CH2)1
B13: Example 659 (peptide)
chain: YXQGTXTSDXSILLDKKAQXAFIEYLEEGGPSSGAPPPEGTE
modifications: synthetic construct; SITE 2: note = 2-Aminoisobutyric Acid; SITE 6: note = alpha-methyl-2-fluoro-L-phenylalanine; SITE 10: note = 3-(4-Pyridyl)-L-alanine; SITE 17: note = Lysine is chemically modified through conjugation of the epsilon-amino group of the Lysine side chain with (gamma-Glu)2-CO-(CH2)1
B14: Example 60 (peptide)
chain: YXQGTFTSDFSXXLDKKAQXAFIEYLLAGGPSSGAPPPSEG
modifications: synthetic construct; SITE 2: note = 2-Aminoisobutyric Acid; SITE 12: note = L-ornithine; SITE 13: note = alpha-methyl-leucine; SITE 17: note = Lysine is chemically modified through conjugation of the epsilon-amino group of the Lysine side chain with (2-[2-(2-Amino-ethoxy)-ethoxy]-acetyl)-(gamma-Glu)
B15: Example 61 (peptide)
chain: YXQGTFTSDFSXXLDKKAQXAFIEYLLEXGPSSGAPPPSEG
modifications: synthetic construct; SITE 2: note = 2-Aminoisobutyric Acid; SITE 12: note = L-ornithine; SITE 13: note = alpha-methyl-leucine; SITE 17: note = Lysine is chemically modified through conjugation of the epsilon-amino group of the Lysine side chain with (2-[2-(2-Amino-ethoxy)-ethoxy]-acetyl)-(gamma-Glu)

Experiments:
Experiment in all cases: cell-based or functional assay
[1] = molecular target: T1, human GIP receptor (human)
hGLP-1R = hGLP-1R (Homo sapiens, UniProt P43220)
[2] = molecular target: human glucagon receptor (human) (UniProt P47871)
Sequence of human glucagon receptor (human) (P47871 26-477): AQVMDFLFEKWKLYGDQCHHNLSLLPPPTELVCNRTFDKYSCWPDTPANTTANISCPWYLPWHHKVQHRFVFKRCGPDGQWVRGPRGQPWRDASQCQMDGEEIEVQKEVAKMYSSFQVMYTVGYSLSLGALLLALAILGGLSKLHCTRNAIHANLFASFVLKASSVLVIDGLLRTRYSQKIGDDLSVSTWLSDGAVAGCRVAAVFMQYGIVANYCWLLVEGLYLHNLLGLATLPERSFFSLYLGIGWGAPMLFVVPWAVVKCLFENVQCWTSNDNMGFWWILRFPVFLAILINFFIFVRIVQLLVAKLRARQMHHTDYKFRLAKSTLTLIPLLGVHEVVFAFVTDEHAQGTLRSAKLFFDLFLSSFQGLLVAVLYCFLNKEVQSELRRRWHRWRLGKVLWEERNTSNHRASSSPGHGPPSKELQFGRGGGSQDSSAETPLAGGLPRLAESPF

Sequence of hGLP-1R (P43220 24-463): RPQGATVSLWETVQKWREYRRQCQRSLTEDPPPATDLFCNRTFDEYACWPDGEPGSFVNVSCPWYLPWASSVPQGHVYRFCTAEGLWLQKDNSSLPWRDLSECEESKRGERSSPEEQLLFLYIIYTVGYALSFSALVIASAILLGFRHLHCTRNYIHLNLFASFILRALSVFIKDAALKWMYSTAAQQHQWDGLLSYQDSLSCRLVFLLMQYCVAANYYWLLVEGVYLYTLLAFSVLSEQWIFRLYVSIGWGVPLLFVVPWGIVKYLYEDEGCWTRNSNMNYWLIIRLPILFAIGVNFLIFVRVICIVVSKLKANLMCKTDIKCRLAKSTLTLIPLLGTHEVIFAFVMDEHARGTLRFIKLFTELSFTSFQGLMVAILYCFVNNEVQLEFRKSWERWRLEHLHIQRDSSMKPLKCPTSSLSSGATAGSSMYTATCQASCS

Binder | cAMP Rel EC50 (1% HSA) [1] | cAMP Rel EC50 (1% HSA) (hGLP-1R) | cAMP Rel EC50 (1% HSA) [2] | Relative cAMP EC50 [1] | Relative cAMP EC50 (hGLP-1R) | Relative cAMP EC50 [2] | further results
B1 | 4.69 nM | 84.5 nM | 561 nM |  |  |  | 
B2 | 6.3 nM | 53.9 nM | 639 nM |  |  |  | 
B3 |  |  |  | 0.0354 nM | 0.4 nM | 14 nM | cAMP Rel EC50 (in the presence of 1% HSA) [1]: 2.39 nM; cAMP Rel EC50 (in the presence of 1% HSA) (hGLP-1R): 36 nM; cAMP Rel EC50 (in the presence of 1% HSA) [2]: 1090 nM
B4 | 1.92 nM | 26.8 nM | 764 nM |  |  |  | 
B5 |  |  |  | 0.0231 nM | 0.374 nM | 8 nM | cAMP Rel EC50 (in the presence of 1% HSA) [1]: 2.04 nM; cAMP Rel EC50 (in the presence of 1% HSA) (hGLP-1R): 27.9 nM; cAMP Rel EC50 (in the presence of 1% HSA) [2]: 750 nM
B6 |  |  |  | 0.108 nM | 1.08 nM | 11.7 nM | cAMP Rel EC50 (in the presence of 1% HSA) [1]: 7.23 nM; cAMP Rel EC50 (in the presence of 1% HSA) (hGLP-1R): 76.2 nM; cAMP Rel EC50 (in the presence of 1% HSA) [2]: 968 nM
B7 | 7.13 nM | 119 nM | 662 nM |  |  |  | 
B8 | 4.64 nM | 76.9 nM | 455 nM |  |  |  | 
B9 | 2.1 nM | 32.8 nM | 285 nM |  |  |  | 
B10 | 1.46 nM | 33 nM | 215 nM |  |  |  | 
B11 | 1.18 nM | 27.7 nM | 179 nM |  |  |  | 
B12 | 1.69 nM | 27.1 nM | 203 nM |  |  |  | 
B13 | 5.75 nM | 81.5 nM | 735 nM |  |  |  | 
B14 |  |  |  | 0.135 nM | 1.93 nM | 8.96 nM | cAMP Rel EC50, nM (in the presence of 1% HSA) [1]: 33 nM; cAMP Rel EC50, nM (in the presence of 1% HSA) (hGLP-1R): 409 nM; cAMP Rel EC50, nM (in the presence of 1% HSA) [2]: 1210 nM
B15 |  |  |  | 0.122 nM | 2.05 nM | 3.57 nM | cAMP Rel EC50, nM (in the presence of 1% HSA) [1]: 55.2 nM; cAMP Rel EC50, nM (in the presence of 1% HSA) (hGLP-1R): 704 nM; cAMP Rel EC50, nM (in the presence of 1% HSA) [2]: 1310 nM
